One experiment deals with T1, human P2X7 (human, UniProt Q99572 1-595).
T1 construct: on transfected Hek293 cells; also called hP2X7
T1 sequence: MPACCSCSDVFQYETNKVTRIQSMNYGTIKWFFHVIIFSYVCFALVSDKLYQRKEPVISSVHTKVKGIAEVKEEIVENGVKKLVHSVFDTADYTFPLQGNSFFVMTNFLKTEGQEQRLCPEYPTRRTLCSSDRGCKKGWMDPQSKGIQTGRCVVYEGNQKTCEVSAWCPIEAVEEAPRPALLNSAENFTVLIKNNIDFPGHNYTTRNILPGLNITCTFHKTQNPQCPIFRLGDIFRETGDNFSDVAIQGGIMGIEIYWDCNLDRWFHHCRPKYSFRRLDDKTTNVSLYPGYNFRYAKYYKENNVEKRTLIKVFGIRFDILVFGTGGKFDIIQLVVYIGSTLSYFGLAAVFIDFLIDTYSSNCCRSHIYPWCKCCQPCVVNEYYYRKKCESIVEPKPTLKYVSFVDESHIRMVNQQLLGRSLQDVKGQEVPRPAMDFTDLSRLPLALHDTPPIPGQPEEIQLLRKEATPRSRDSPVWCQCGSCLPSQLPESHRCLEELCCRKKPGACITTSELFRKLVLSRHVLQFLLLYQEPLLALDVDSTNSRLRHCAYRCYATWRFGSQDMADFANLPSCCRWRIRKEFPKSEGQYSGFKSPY
As to the kind of experiment: flow cytometry, Nanobody pre-incubated with anti-Myc-FITC. (A flow cytometer gives signals particle by particle.)

In another experiment the target is T2, human P2X4 (human, UniProt Q99571 1-388).
T2 construct: whole, on cells; also called hP2X4
T2 sequence (looked up): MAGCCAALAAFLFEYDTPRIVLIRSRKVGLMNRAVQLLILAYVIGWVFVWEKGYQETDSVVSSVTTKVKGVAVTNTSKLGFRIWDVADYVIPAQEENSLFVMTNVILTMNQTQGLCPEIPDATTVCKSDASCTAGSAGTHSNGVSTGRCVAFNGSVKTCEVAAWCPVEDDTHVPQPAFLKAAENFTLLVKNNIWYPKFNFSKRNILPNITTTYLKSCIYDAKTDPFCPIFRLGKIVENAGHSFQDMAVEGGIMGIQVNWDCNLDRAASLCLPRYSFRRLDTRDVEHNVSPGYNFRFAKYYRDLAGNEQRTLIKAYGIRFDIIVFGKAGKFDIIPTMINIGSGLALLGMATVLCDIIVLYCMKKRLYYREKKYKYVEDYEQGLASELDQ
Described as above.

The target of experiment [1] is T3, mouse P2X7 (mouse, UniProt Q9Z1M0 1-595).
T3 construct: on transfected CHO or Hek293 cells, or endogenous on Yac-1 cells; also called mP2X7; mouse purinoceptor P2X7
T3 sequence: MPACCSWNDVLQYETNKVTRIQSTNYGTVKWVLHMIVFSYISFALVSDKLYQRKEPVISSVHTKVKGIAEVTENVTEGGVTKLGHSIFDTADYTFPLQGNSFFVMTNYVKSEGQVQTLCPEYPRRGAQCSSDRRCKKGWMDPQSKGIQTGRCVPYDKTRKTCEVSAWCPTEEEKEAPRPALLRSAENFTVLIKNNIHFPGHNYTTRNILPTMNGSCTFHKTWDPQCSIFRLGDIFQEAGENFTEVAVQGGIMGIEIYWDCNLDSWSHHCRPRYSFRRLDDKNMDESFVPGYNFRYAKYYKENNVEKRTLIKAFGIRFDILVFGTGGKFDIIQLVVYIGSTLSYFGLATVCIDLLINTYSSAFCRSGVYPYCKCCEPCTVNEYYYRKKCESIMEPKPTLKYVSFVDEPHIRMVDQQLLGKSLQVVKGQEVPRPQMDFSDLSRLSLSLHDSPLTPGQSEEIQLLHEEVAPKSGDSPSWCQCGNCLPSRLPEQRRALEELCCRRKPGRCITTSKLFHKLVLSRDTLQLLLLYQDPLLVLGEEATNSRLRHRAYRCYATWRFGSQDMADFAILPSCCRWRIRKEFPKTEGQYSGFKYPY
As to the kind of experiment: phage ELISA on fixed mP2X7-CHO vs untransfected CHO cells.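 Further: phage culture supernatant diluted 10-fold, applied for 1 h to paraformaldehyde-fixed, BSA-blocked cells in 96-well plates, with bound phage read via HRP-linked anti-M13 antibody.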 On the technique in general: In an ELISA, binding on a coated surface is turned into a signal by an enzyme label.
Method: (§1) Sub-confluent cells were rinsed with PBS and fixed using 4% paraformaldehyde in PBS for 10 minutes at RT. Fixed cells were washed three times with PBS, and blocked with 2% BSA in PBS for 2 hours. Following blocking, 10-fold diluted culture supernatant containing phage was added and incubated for 1 hour. Cell-bound phage was detected via mouse anti-M13-HRP-conjugate (GE Healthcare, Cat nr. E2886). Rat mAb Hano43 was used as positive control.

Experiment [2] concerns the target T3, mouse P2X7. As to the kind of experiment: phage ELISA, mP2X7-CHO vs control CHO cells.
Method: as §1

B1: P2X7PMP7B4 (VHH)
VHH: EVQLVESGGGLVQAGGSLRLSCAASGRNFGSYTMAWFRQAPGKGREFVSTINWSGGDTDYADSVKGRFTISRDNAKNTVYLQMDSLKPEDTAVYYCAAGLEYMSTIRYTYEYWGQGTQVTVSS
notes: family 10; on phage or c-myc/His6-tagged in assays
With B1, the binding result in the experiment with human P2X7 and with human P2X4 was “no binding (tested: 147 nM)” in each case. In addition, the “Fold Cho P2X7/wt (phage ELISA)” value with mouse P2X7 [1] was 23 fold.

B2: P2X7PMP13G5 (VHH)
VHH: EVQLVESGGGLVQAGGSLRLSCAASDRTFGSSAMGWFRQAPGKDRDFVAAISWSGSSTHYADSVKGRFTISRDNAKNTMYLQMNSLKPADTAVYTCAASRRAYLPAKVGEYDFWGQGTQVTVSS
notes: family 18; on phage or c-myc/His6-tagged in assays
In the case of B2, the binding result with human P2X7 and in the experiment with human P2X4 was “no binding (tested: 147 nM)” each time. Further, the “Fold Cho P2X7/wt (phage ELISA)” value with mouse P2X7 [1] is 35 fold.

B3: P2X7PMP7A4 (VHH)
VHH: EVQLVESGGGLVQAGGSLRVSCAASARTGSYSMGWFRQAPGKEREFVSTISWNGADTVYADSVKGRFTISRDNAKDTVYLQMNSLKPEDTAVYYCAGSITSYVSTWQHDYEYWGQGTQVTVSS
notes: family 9; on phage or c-myc/His6-tagged in assays
In the case of B3, the binding result with human P2X7 and in the experiment with human P2X4 was “no binding (tested: 147 nM)” throughout. Besides, the “Fold Cho P2X7/wt (phage ELISA)” value with mouse P2X7 [1] was 32 fold.

B4: P2X7PMP13B8 (VHH)
VHH: EVQLVESGGGLVQPGGSLRLSCAASGLTLTYYNIGWFRQAPGKEREGVSCIDWTDGTTFYADSVKGRFTISTDNAKNTVYLHLNSLEPEDTAVYYCAAGWGRVMTVQHMCADRSLFTSWGQGTQVTVSS
notes: family 13; on phage or c-myc/His6-tagged in assays
As for B4, the binding result in the experiment with human P2X7 and with human P2X4 was “no binding (tested: 147 nM)” each time. In addition, the “Fold Cho P2X7/wt (phage ELISA)” value with mouse P2X7 [1] was 24 fold.

B5: P2X7PMP7D6 (VHH)
VHH: EVQLVESGGGLVQAGGSLRLSCAASGRTFGSSPVGWFRQAPGKERDFVATISWNGVDTHYLDSVKGRFTISRDNAKNTVHLQMHILKPEDTALYYCAASTSGSVYLPYRVYQYDSWGQGTQVTVSS
notes: family 8; on phage or c-myc/His6-tagged in assays
Regarding B5, the binding result in the experiment with human P2X7 and with human P2X4 was “no binding (tested: 147 nM)” in each case. In the experiment with mouse P2X7 [1], the “Fold Cho P2X7/wt (phage ELISA)” value came out at 18 fold.

B6: P2X7PMP14F6 (VHH)
VHH: EVQLVESGGGLVQAGGPLRLSCAASGSFFRVNNMAWYRQAPGKQRELVADITRGDRTNYADSVNGRFTISRDNVRNTVYLQMNGLKPEDTAVYYCYARIELGVLEPRDYWGQGTQVTVSS
notes: family 5, 2; on phage or c-myc/His6-tagged in assays
For B6, the “absorption ratio (ELISA)” value in the experiment with mouse P2X7 [2] was found to be 15 ratio.

B7: P2X7PMP13G4 (VHH)
VHH: EVQLVESGGGLVQAGGSLRLSCAASDRTFGSSTMGWFRQPPGKNREFVATIAWSATTTHYADAVKGRFTVSRDNALNTVYLQMNSLKPEDTAVYYCAATLTWLGIHEYEYNTWGQGTQVTVSS
notes: family 21; on phage or c-myc/His6-tagged in assays
For the molecule B7, the binding result with human P2X7 and with human P2X4 was “no binding (tested: 147 nM)” throughout. In the experiment with mouse P2X7 [1], the “Fold Cho P2X7/wt (phage ELISA)” value came out at 56 fold.

B8: P2X7PMP7G5 (VHH)
VHH: EVQLVESGGGLVQSGGSLRLSCAGSGFSYYIIGWFRQAPGKEREEVSCIRVTDGSTYYTNSVKGRFTMSRDNAENTVYLQMNSLKPEDTAVYSCATECQRWAYPNRIGARGQGTQVTVSS
notes: family 12; on phage or c-myc/His6-tagged in assays
As to B8, the binding result with human P2X7 and with human P2X4 was “no binding (tested: 147 nM)” throughout. In addition, the “Fold Cho P2X7/wt (phage ELISA)” value in the experiment with mouse P2X7 [1] came out at 30 fold.

B9: P2X7PMP2A6 (VHH)
VHH: EVQLVESGGDVVQAGGSLRLSCLASGFTFDDYAIGWFRQAPGKEREGISCISSTGNVFYADSVKGRFTISSDKEKNTLYLQMNSLEPEDTAVYHCAAGHFTVDSGKVLLRTDISSWGQGTQVTVSS
notes: family 1; on phage or c-myc/His6-tagged in assays
With B9, the binding result with human P2X7 and with human P2X4 was “no binding (tested: 147 nM)” in each case. Further, the “Fold Cho P2X7/wt (phage ELISA)” value with mouse P2X7 [1] was 8 fold.

The values above are taken from patent US20160264664A1 (Ablynx, published 2016).
